Experimental data from ChEMBL document CHEMBL1649237, “IND-6, a highly divergent IND-type metallo-beta-lactamase from Chryseobacterium indologenes strain 597 isolated in Burkina Faso” (2009).

B1: Metallo-beta-lactamase IND-2 (Chryseobacterium indologenes), Q9F923 (protein)
chain: MKKSIQLLMMSMFLSPLINAQVKDFVIEPPVKPNLYLYKSFGVFGGKEYSANAVYLTTKKGVVLFDVPWQKEQYQTLMDTIQKRHHLPVIAVFATHSHDDRAGDLSFYNQKGIKTYATAKTNELLKKDGKATSTEIIKTGKPYKIGGEEFMVDFLGEGHTVDNVVVWFPKYKVLDGGCLVKSRTATDLGYTGEANVKQWPETMRKLKTKYAQATLVIPGHDEWKGGGHVQHTLDLLDKN
B2: Metallo-beta-lactamase type 2 (Flavobacterium meningosepticum), O08498 (protein)
chain: MLKKIKISLILALGLTSLQAFGQENPDVKIEKLKDNLYVYTTYNTFNGTKYAANAVYLVTDKGVVVIDCPWGEDKFKSFTDEIYKKHGKKVIMNIATHSHDDRAGGLEYFGKIGAKTYSTKMTDSILAKENKPRAQYTFDNNKSFKVGKSEFQVYYPGKGHTADNVVVWFPKEKVLVGGCIIKSADSKDLGYIGEAYVNDWTQSVHNIQQKFSGAQYVVAGHDDWKDQRSIQHTLDLINEYQQKQKASN

Assays:
[1] = substrate: CC1(C)S[C@@H]2[C@H](NC(=O)Cc3ccccc3)C(=O)N2[C@H]1C(=O)O; assay: (§1) Ratio of Kcat to Km for Chryseobacterium indologenes 597 metallo-beta-lactamase IND-2 expressed in Escherichia coli DH5alpha by Michaelis-Menten equation
[2] = substrate: CC(C)(O/N=C(\C(=O)N[C@@H]1C(=O)N2C(C(=O)[O-])=C(C[n+]3ccccc3)CS[C@H]12)c1csc(N)n1)C(=O)O; assay: as §1
[3] = substrate: C[C@@H](O)[C@H]1C(=O)N2C(C(=O)O)=C(S[C@@H]3CN[C@H](C(=O)N(C)C)C3)[C@H](C)[C@H]12; assay: as §1
[4] = substrate: CC(=O)OCC1=C(C(=O)O)N2C(=O)[C@@H](NC(=O)Cc3cccs3)[C@H]2SC1; assay: as §1
[5] = substrate: CO/N=C(\C(=O)N[C@@H]1C(=O)N2C(C(=O)[O-])=C(C[N+]3(C)CCCC3)CS[C@H]12)c1csc(N)n1; assay: as §1
[6] = substrate: CO/N=C(\C(=O)N[C@@H]1C(=O)N2C(C(=O)O)=C(COC(C)=O)CS[C@H]12)c1csc(N)n1; assay: as §1
[7] = substrate: C[C@@H](O)[C@H]1C(=O)N2C(C(=O)O)=C(SCCNC=N)C[C@H]12; assay: as §1
[8] = substrate: CC1(C)S[C@@H]2[C@H](NC(=O)Cc3ccccc3)C(=O)N2[C@H]1C(=O)O; assay: (§2) Ratio of Kcat to Km for Chryseobacterium meningosepticum CCUG 4310 beta-lactamase BlaB1 expressed in Escherichia coli DH5alpha by Michaelis-Menten equation; details: Elizabethkingia meningoseptica
[9] = substrate: CC1(C)S[C@@H]2[C@H](NC(=O)C(C(=O)O)c3ccccc3)C(=O)N2[C@H]1C(=O)O; assay: as §2; details: Elizabethkingia meningoseptica
[10] = substrate: CC(C)(O/N=C(\C(=O)N[C@@H]1C(=O)N2C(C(=O)[O-])=C(C[n+]3ccccc3)CS[C@H]12)c1csc(N)n1)C(=O)O; assay: as §2; details: Elizabethkingia meningoseptica
[11] = substrate: C[C@@H](O)[C@H]1C(=O)N2C(C(=O)O)=C(S[C@@H]3CN[C@H](C(=O)N(C)C)C3)[C@H](C)[C@H]12; assay: as §2; details: Elizabethkingia meningoseptica
[12] = substrate: CC(=O)OCC1=C(C(=O)O)N2C(=O)[C@@H](NC(=O)Cc3cccs3)[C@H]2SC1; assay: as §2; details: Elizabethkingia meningoseptica
[13] = substrate: CO/N=C(\C(=O)N[C@@H]1C(=O)N2C(C(=O)[O-])=C(C[N+]3(C)CCCC3)CS[C@H]12)c1csc(N)n1; assay: as §2; details: Elizabethkingia meningoseptica
[14] = substrate: CO/N=C(\C(=O)N[C@@H]1C(=O)N2C(C(=O)O)=C(COC(C)=O)CS[C@H]12)c1csc(N)n1; assay: as §2; details: Elizabethkingia meningoseptica
[15] = substrate: C[C@@H](O)[C@H]1C(=O)N2C(C(=O)O)=C(SCCNC=N)C[C@H]12; assay: as §2; details: Elizabethkingia meningoseptica
[16] = substrate: O=C(Cc1cccs1)N[C@@H]1C(=O)N2C(C(=O)[O-])=C(C[n+]3ccccc3)CS[C@H]12; assay: as §2; details: Elizabethkingia meningoseptica
[17] = substrate: CO/N=C(\C(=O)N[C@@H]1C(=O)N2C(C(=O)O)=C(COC(N)=O)CS[C@H]12)c1ccco1; assay: as §2; details: Elizabethkingia meningoseptica
[18] = substrate: O=C(Cc1cccs1)N[C@@H]1C(=O)N2C(C(=O)O)=C(/C=C/c3ccc([N+](=O)[O-])cc3[N+](=O)[O-])CS[C@H]12; assay: as §2; details: Elizabethkingia meningoseptica

Row | Protein | kcat/Km [1] | kcat/Km [2] | kcat/Km [3] | kcat/Km [4] | kcat/Km [5] | kcat/Km [6] | kcat/Km [7] | kcat/Km [8] | kcat/Km [9] | kcat/Km [10] | kcat/Km [11] | kcat/Km [12] | kcat/Km [13] | kcat/Km [14] | kcat/Km [15] | kcat/Km [16] | kcat/Km [17] | kcat/Km [18]
1 | B1 | 4.6 ×10⁶ /M/s | 4.5 ×10³ /M/s | 1.8 ×10⁵ /M/s | 1.2 ×10⁶ /M/s | 4.5 ×10² /M/s | 9 ×10⁵ /M/s | 5.9 ×10⁵ /M/s | – | – | – | – | – | – | – | – | – | – | –
2 | B2 | – | – | – | – | – | – | – | 2.7 ×10⁷ /M/s | 6.1 ×10⁶ /M/s | 6.6 ×10³ /M/s | 7.6 ×10⁵ /M/s | 1.6 ×10⁶ /M/s | 2 ×10² /M/s | 7.9 ×10⁵ /M/s | 2 ×10⁶ /M/s | 1.4 ×10⁵ /M/s | 1 ×10⁶ /M/s | 3.9 ×10⁶ /M/s
